Like-named read-outs stand apart in the source and are kept apart here.
Tests used:
[1] = biological target: T1, soluble H-2K^b (K^bsol), heterodimer of truncated K^b heavy chain and murine β-2 microglobulin, purified empty from Drosophila cells (murine), P01901; assay: competitive RIA against [^125I]VSV-8 on K^bsol, P30 gel filtration, 23° C.
T1 chain 1: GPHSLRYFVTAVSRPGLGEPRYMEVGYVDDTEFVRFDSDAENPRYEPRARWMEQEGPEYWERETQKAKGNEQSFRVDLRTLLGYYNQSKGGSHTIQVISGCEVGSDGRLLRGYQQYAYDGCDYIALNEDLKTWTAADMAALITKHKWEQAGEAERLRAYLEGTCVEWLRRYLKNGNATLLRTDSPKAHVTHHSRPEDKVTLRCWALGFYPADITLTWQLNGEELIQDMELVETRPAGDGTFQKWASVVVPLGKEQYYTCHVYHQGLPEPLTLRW
T1 chain 2: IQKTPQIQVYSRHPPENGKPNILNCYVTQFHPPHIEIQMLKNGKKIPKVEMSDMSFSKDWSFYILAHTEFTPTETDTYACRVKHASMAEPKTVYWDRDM

[2] = biological target: T1, soluble H-2K^b (K^bsol), heterodimer of …
[3] = biological target: T1, soluble H-2K^b (K^bsol), heterodimer of …

B1: VSV-9C (peptide)
peptide: RGYVYQGLK
modifications: not checked
- Kd [1]: 6.9 nM

B2: VSV-10N (peptide)
peptide: DLRGYVYQGL
modifications: not checked
- Kd [1]: 390 nM

B3: VSV-10C (peptide)
peptide: RGYVYQGLKS
modifications: not checked
- Kd [1]: 21 nM

B4: VSV-9N (peptide)
peptide: LRGYVYQGL
modifications: not checked
- Kd [1]: 7.3 nM

B5: VSV-8 (peptide)
peptide: RGYVYQGL
modifications: not checked
- Kd [1]: 3.7 nM

B6: [^125I]VSV-8 (peptide)
peptide: RGYVYQGL
modifications: not checked
- Kd [2]: 33 nM
- half-time of association [3]: 5 min

Source: patent US20030077318A1
